Here are results for 16 substances from patent publication US20170327577A1, “METHODS OF CONSTRUCTING AMINO TERMINAL IMMUNOGLOBULIN FUSION PROTEINS AND COMPOSITIONS THEREOF” (The California Institute for Biomedical Research, priority 2014, published 2017).

The target in one assay is leptin receptor (UniProt P48357). Briefly: cell-based or functional assay.
In another assay the target is T1, relaxin receptor (LGR7) (UniProt Q9HBX9).
T1 sequence (looked up): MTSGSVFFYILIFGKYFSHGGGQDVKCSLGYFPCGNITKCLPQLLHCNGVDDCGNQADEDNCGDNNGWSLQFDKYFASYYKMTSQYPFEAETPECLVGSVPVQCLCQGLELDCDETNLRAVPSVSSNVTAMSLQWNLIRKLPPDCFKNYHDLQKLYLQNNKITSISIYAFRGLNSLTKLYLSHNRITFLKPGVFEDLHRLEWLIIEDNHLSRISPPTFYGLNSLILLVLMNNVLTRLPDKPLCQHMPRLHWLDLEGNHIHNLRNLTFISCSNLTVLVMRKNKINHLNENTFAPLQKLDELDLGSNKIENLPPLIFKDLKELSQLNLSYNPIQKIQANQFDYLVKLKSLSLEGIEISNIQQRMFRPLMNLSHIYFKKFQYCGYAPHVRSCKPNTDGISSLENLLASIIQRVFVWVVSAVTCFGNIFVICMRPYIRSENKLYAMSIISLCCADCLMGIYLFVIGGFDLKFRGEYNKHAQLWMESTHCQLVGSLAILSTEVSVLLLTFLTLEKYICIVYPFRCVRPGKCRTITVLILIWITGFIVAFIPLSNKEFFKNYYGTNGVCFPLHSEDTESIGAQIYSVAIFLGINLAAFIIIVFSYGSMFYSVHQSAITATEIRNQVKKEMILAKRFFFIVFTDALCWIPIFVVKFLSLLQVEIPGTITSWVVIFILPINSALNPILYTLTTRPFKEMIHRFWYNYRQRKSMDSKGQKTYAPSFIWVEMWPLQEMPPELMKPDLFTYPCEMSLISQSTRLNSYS
Briefly: cell-based or functional assay.

In the next assay the target is T2, GLP-2 receptor (GLP-2R) (Homo sapiens, UniProt O95838).
T2 sequence (O95838 1-553): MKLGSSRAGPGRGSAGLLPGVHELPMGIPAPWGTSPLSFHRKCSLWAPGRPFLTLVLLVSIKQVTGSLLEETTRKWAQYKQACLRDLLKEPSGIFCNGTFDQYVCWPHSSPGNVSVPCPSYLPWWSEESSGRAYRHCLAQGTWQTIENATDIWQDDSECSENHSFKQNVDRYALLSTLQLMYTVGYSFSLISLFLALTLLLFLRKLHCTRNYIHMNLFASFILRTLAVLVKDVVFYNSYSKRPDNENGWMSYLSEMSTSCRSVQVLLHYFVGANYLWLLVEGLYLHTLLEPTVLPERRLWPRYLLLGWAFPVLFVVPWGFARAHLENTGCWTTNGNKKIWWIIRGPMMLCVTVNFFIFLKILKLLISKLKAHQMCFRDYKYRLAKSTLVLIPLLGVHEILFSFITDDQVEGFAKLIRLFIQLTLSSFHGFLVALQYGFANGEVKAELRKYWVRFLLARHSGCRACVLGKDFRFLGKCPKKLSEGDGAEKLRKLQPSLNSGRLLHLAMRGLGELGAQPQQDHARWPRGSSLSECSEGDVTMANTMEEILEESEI
As to the kind of experiment: GLP-2 receptor activation, CRE-luciferase reporter assay in HEK293 cells. Format: cell-based. The conditions noted are these: Example 18; HEK293 GLP-2R CRE-Luc, 24 hours. A general note: A reporter such as luciferase makes a cellular process visible.

In a further assay the target is GLP-2 receptor (UniProt O95838). As to the kind of experiment: cell-based or functional assay.
The next assay concerns the target relaxin receptor (LGR8) (Homo sapiens, UniProt Q8WXD0). Briefly: cell-based or functional assay.
The target of the next assay is GLP-1 receptor (UniProt P43220). Briefly: cell-based or functional assay.
In the next assay the target is glucagon receptor (UniProt P47871). As to the kind of experiment: cell-based or functional assay.

pEC50: −log10 of the molar value.

Sequence of relaxin receptor (LGR8) (Q8WXD0 whole entry): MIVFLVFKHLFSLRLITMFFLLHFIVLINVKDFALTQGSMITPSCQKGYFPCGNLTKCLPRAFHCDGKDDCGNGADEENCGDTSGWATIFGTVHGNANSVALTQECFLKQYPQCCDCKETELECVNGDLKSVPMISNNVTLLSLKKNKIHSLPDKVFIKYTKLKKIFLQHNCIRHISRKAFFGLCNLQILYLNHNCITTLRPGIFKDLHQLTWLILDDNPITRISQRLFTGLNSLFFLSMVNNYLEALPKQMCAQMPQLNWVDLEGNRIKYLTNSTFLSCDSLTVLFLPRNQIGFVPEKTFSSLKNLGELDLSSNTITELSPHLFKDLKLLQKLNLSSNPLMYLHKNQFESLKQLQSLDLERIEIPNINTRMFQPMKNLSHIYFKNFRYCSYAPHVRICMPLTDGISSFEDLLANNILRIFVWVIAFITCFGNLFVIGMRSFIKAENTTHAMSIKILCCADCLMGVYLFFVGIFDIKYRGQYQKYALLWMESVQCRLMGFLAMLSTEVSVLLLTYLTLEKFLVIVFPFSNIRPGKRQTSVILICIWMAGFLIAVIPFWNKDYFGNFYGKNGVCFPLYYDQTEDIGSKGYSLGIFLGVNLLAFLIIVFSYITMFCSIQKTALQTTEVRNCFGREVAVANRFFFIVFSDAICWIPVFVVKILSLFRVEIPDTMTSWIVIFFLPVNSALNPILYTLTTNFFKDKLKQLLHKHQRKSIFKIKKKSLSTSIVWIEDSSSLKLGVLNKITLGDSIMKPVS
Sequence of palivizumab(NH, CEXGGGGS)-relaxin2(single) and palivizumab light chain (heavy): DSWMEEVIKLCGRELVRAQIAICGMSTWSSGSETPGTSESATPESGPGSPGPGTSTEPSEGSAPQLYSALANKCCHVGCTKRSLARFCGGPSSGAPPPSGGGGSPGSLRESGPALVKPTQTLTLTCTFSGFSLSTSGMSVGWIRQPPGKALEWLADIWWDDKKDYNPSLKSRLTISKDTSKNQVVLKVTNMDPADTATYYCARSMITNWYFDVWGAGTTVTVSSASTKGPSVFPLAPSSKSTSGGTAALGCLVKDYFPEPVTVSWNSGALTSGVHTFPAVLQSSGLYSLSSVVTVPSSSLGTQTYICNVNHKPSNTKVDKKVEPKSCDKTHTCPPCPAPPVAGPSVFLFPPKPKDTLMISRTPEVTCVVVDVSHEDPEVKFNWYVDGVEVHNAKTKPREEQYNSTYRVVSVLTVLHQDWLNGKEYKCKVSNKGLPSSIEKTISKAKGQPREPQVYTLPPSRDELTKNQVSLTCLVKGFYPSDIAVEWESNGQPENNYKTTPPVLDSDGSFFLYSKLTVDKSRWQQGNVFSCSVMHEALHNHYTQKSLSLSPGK
Sequence of palivizumab(NH, CEXGGGGS)-relaxin2(single) and palivizumab light chain (light): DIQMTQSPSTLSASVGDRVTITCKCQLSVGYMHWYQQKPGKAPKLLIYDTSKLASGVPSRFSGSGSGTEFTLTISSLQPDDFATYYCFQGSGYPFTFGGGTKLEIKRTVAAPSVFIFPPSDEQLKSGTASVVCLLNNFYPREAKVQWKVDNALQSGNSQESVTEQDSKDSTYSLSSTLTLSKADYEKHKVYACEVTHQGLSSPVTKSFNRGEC
Sequence of palivizumab fab(NH, CEXGGGGS)-relaxin2(single) and palivizumab light chain (heavy): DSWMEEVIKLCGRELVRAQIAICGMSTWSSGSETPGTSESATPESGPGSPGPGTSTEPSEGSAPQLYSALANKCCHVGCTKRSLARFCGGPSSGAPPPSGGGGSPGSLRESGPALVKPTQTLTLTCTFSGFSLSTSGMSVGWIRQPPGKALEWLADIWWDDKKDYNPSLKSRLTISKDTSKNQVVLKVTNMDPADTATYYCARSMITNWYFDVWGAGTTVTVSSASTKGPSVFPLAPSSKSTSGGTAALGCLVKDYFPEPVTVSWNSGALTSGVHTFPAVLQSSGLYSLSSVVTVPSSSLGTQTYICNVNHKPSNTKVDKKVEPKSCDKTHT
Sequence of palivizumab fab(NH, CEXGGGGS)-relaxin2(single) and palivizumab light chain (light): as the sequence (light) above
Sequence of palivizumab(NH, CEXGGGGG)-relaxin2(GGGPRR) and palivizumab light chain (heavy): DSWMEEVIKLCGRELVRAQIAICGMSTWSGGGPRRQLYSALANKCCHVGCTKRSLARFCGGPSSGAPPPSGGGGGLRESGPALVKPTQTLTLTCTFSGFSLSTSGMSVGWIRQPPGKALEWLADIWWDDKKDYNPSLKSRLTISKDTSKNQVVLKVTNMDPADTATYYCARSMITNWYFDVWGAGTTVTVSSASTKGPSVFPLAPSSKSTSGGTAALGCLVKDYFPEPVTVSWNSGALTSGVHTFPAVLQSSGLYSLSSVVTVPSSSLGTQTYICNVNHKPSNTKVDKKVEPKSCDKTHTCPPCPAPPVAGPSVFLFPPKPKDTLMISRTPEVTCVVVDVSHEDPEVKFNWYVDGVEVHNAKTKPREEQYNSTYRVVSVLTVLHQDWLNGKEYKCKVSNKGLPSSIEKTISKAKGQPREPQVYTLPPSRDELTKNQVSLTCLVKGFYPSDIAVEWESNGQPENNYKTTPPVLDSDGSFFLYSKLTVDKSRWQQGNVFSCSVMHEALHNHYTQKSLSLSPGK
Sequence of palivizumab(NH, CEXGGGGG)-relaxin2(GGGPRR) and palivizumab light chain (light): as the sequence (light) above
Sequence of palivizumab(NH, CEXGGGGG)-relaxin2(30GS) and palivizumab light chain (heavy): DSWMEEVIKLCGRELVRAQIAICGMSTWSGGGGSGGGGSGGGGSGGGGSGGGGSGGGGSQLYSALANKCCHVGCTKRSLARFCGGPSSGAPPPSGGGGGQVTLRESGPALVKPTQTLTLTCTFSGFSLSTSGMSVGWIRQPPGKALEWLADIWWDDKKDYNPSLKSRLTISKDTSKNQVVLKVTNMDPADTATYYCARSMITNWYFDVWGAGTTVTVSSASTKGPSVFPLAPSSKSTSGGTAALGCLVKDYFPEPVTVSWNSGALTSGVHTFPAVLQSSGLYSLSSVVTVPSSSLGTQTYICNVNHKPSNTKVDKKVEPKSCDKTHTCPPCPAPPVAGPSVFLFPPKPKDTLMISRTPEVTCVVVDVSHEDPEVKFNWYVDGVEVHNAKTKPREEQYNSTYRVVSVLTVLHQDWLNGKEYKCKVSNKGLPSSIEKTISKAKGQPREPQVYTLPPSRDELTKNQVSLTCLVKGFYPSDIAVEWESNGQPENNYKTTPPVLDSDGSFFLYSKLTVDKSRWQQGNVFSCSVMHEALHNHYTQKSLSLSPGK
Sequence of palivizumab(NH, CEXGGGGG)-relaxin2(30GS) and palivizumab light chain (light): as the sequence (light) above
Sequence of palivizumab(NH, EAAAK)-relaxin2(GGGPRR) and palivizumab light chain (heavy): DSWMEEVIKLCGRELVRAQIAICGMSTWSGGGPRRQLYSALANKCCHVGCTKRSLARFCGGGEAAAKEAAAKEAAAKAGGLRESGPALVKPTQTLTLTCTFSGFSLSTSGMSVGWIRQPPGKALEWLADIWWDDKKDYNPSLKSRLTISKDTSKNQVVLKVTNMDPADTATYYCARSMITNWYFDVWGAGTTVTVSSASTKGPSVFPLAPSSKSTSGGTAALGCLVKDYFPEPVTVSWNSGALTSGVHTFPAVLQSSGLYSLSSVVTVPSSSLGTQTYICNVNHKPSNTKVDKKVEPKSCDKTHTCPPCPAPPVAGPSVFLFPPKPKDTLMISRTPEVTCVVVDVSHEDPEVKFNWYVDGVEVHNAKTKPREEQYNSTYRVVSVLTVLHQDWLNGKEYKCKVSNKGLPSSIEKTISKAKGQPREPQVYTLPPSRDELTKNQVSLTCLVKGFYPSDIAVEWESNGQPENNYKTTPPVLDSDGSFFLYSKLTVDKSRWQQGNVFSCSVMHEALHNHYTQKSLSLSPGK
Sequence of palivizumab(NH, EAAAK)-relaxin2(GGGPRR) and palivizumab light chain (light): as the sequence (light) above
Sequence of palivizumab fab(NH, GGGGS3)-relaxin2(9GS) and palivizumab light chain (heavy): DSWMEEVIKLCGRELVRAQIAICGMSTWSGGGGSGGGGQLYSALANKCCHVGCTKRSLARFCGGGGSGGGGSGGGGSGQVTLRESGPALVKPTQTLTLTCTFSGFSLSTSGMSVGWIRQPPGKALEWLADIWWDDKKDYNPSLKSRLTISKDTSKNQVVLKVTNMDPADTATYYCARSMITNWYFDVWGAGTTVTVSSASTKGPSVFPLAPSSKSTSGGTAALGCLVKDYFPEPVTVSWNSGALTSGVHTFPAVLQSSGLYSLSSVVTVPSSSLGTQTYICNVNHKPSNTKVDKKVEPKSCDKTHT
Sequence of palivizumab fab(NH, GGGGS3)-relaxin2(9GS) and palivizumab light chain (light): as the sequence (light) above
Sequence of palivizumab (NH, GGGGS3)-relaxin(18GS) and palivizumab light chain (heavy): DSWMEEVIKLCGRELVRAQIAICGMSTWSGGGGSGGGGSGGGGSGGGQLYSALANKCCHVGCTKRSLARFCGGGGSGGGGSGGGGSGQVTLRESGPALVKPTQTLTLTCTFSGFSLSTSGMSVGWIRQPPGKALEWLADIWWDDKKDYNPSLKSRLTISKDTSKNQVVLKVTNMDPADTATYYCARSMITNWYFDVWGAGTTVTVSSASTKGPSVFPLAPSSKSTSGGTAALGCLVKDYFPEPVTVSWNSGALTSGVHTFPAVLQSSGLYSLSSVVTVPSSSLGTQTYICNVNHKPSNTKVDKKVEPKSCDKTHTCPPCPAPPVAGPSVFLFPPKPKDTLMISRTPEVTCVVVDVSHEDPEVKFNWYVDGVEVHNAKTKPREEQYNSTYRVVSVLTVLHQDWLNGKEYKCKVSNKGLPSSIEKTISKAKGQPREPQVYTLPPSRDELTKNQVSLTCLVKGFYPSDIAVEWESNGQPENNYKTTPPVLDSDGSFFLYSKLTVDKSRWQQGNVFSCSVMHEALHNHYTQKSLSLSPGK
Sequence of palivizumab (NH, GGGGS3)-relaxin(18GS) and palivizumab light chain (light): as the sequence (light) above
Procedure for GLP-2 receptor (GLP-2R): Luminescence intensities were then measured using One-Glo (Promega) luciferase reagent by following manufacturer's instruction. The EC50 values were determined by fitting data into a logistic sigmoidal function: y=A2+(A1-A2)/(1+(x/x0)p), where A1 is the initial value, A2 is the final value, x0 is the inflection point of the curve, and p is the power. Data was analyzed using GraphPad Prism 6 software.

On to “leptin (from UniProt P41159 22-167) (ligand)”, for which, in the assay with leptin receptor, the EC50, luciferase reporter (FIG. 6) came to 0.055 nM.
On to “palivizumab (NH, CEXGGGGG)-relaxin2(9GS) and palivizumab light chain”, for which the EC50, CRE-luciferase reporter in HEK293 cells in the assay with relaxin receptor (LGR7) was 0.48 nM.
On the same count and under the same terms, with “palivizumab (NH, GGGGS3)-relaxin2(9GS) and palivizumab light chain” the figure was 0.24 nM; with “palivizumab (NH, GGGGS3)-relaxin(18GS) and palivizumab light chain”, 1.3 nM.
The same measure, in the same setting: with “palivizumab fab(NH, CEXGGGGS)-relaxin2(single) and palivizumab light chain” the figure was 47.3 nM.
Still for that read-out and setting: with “palivizumab fab(NH, GGGGS3)-relaxin2(9GS) and palivizumab light chain” the figure was 5.8 nM; with “palivizumab(NH, CEXGGGGG)-relaxin2(30GS) and palivizumab light chain”, 0.208 nM.
For “palivizumab(NH, CEXGGGGG)-relaxin2(GGGPRR) and palivizumab light chain”, the EC50, CRE-luciferase reporter in HEK293 cells with relaxin receptor (LGR7) was 2 nM.
A word on the pEC50: it is −log10 of the EC50, conventionally taken in molar units. Low values mean a large EC50, high ones a small EC50. On to “palivizumab(NH, CEXGGGGS)-GLP2 (SEQ ID NO: 218) and palivizumab(L) (SEQ ID NO: 7)”, for which, in the assay with GLP-2 receptor (GLP-2R), the pEC50 is 9.88.
For the substance “palivizumab(NH, CEXGGGGS)-GLP2 and palivizumab(L)”, the EC50, CRE-luciferase reporter in HEK293 cells with GLP-2 receptor was found to be 0.133 nM.
In the assay with relaxin receptor (LGR7), “palivizumab(NH, CEXGGGGS)-relaxin2(single) and palivizumab light chain” gave an EC50, CRE-luciferase reporter in HEK293 cells of 2.5 nM and an EC50, CRE-luciferase reporter in HEK293 cells (FIG. 13) of 2.5 nM. In the assay with relaxin receptor (LGR8), this substance had an EC50, CRE-luciferase reporter in HEK293 cells (FIG. 13) of 553 nM.
“palivizumab(NH, EAAAK)-GLP2 and palivizumab(L)” displayed an EC50, CRE-luciferase reporter in HEK293 cells with GLP-2 receptor of 0.069 nM.
Turning to “palivizumab(NH, EAAAK)-relaxin2(GGGPRR) and palivizumab light chain”, in the assay with relaxin receptor (LGR7), the EC50, CRE-luciferase reporter in HEK293 cells worked out at 3.4 nM.
For “palivizumab(NL, EAAAK)-glucagon(2G) and pPalivizumab(NH, GGGGS1)-exendin-4”, the values for the EC50, CRE-luciferase reporter in HEK293 cells in the assay with GLP-1 receptor and with glucagon receptor were 0.009 nM and 0.026 nM, respectively.
Consider “relaxin-2 (from UniProt P04090 25-185) (ligand)”, for which, in the assay with relaxin receptor (LGR7), the EC50, CRE-luciferase reporter in HEK293 cells was 0.0121 nM; the EC50, CRE-luciferase reporter in HEK293 cells (FIG. 13) was found to be 0.012 nM; the EC50, CRE-luciferase reporter in HEK293 cells (FIG. 23) came to 0.014 nM. For the same substance, in the assay with relaxin receptor (LGR8), the EC50, CRE-luciferase reporter in HEK293 cells (FIG. 13) came to 11.2 nM and the EC50, CRE-luciferase reporter in HEK293 cells (FIG. 23) amounted to 11.2 nM.
In the assay with leptin receptor, trastuzumab(CDR3H) Leptin showed an EC50, luciferase reporter (FIG. 6) of 0.0448 nM.
